Data from patent publication US20250154226A1, “LONG-ACTING GLP-1/GLP-2 DUAL AGONIST COMPOUND” (CHENGDU AODA BIOTECHNOLOGY CO., LTD, priority 2022, published 2025).
Starred links: 1 amine or outer side, 2 acyl side, 3 side chain; linkers in the order of their positions; H or OH if unused. Non-standard residues stand in square brackets, D forms with d. Groups on a side chain read outwards from the residue. No end group written: not given here. *: point of attachment. C18 diacid = O=C(O)CCCCCCCCCCCCCCCCC(=O)*; γGlu = O=C(O)[C@H](CCC(=O)[*:2])N[*:1]; AEEA = NCCOCCOCC(=O)O; Aib = CC(C)(N)C(=O)O

B1: Compound 3 (peptide)
peptide: H[Aib]EGSFTSELATILDK([AEEA-γGlu-C18 diacid])QAARDFIAWLIQHKITD-NH2
modifications: N-terminus assumed
SMILES: CC[C@H](C)[C@H](NC(=O)[C@H](Cc1ccccc1)NC(=O)[C@H](CC(=O)O)NC(=O)[C@H](CCCNC(=N)N)NC(=O)[C@H](C)NC(=O)[C@H](C)NC(=O)[C@H](CCC(N)=O)NC(=O)[C@H](CCCCNC(=O)COCCOCCNC(=O)CC[C@H](NC(=O)CCCCCCCCCCCCCCCCC(=O)O)C(=O)O)NC(=O)[C@H](CC(=O)O)NC(=O)[C@H](CC(C)C)NC(=O)[C@@H](NC(=O)[C@@H](NC(=O)[C@H](C)NC(=O)[C@H](CC(C)C)NC(=O)[C@H](CCC(=O)O)NC(=O)[C@H](CO)NC(=O)[C@@H](NC(=O)[C@H](Cc1ccccc1)NC(=O)[C@H](CO)NC(=O)CNC(=O)[C@H](CCC(=O)O)NC(=O)C(C)(C)NC(=O)[C@@H](N)Cc1c[nH]cn1)[C@@H](C)O)[C@@H](C)O)[C@@H](C)CC)C(=O)N[C@@H](C)C(=O)N[C@@H](Cc1c[nH]c2ccccc12)C(=O)N[C@@H](CC(C)C)C(=O)N[C@H](C(=O)N[C@@H](CCC(N)=O)C(=O)N[C@@H](Cc1c[nH]cn1)C(=O)N[C@@H](CCCCN)C(=O)N[C@H](C(=O)N[C@H](C(=O)N[C@@H](CC(=O)O)C(N)=O)[C@@H](C)O)[C@@H](C)CC)[C@@H](C)CC
B2: Compound 1 (peptide)
peptide: H[Aib]EGSFTSELATILDK([γGlu-C18 diacid])QAARDFIAWLIQHKITD-NH2
modifications: N-terminus assumed
SMILES: CC[C@H](C)[C@H](NC(=O)[C@H](Cc1ccccc1)NC(=O)[C@H](CC(=O)O)NC(=O)[C@H](CCCNC(=N)N)NC(=O)[C@H](C)NC(=O)[C@H](C)NC(=O)[C@H](CCC(N)=O)NC(=O)[C@H](CCCCNC(=O)CC[C@H](NC(=O)CCCCCCCCCCCCCCCCC(=O)O)C(=O)O)NC(=O)[C@H](CC(=O)O)NC(=O)[C@H](CC(C)C)NC(=O)[C@@H](NC(=O)[C@@H](NC(=O)[C@H](C)NC(=O)[C@H](CC(C)C)NC(=O)[C@H](CCC(=O)O)NC(=O)[C@H](CO)NC(=O)[C@@H](NC(=O)[C@H](Cc1ccccc1)NC(=O)[C@H](CO)NC(=O)CNC(=O)[C@H](CCC(=O)O)NC(=O)C(C)(C)NC(=O)[C@@H](N)Cc1c[nH]cn1)[C@@H](C)O)[C@@H](C)O)[C@@H](C)CC)C(=O)N[C@@H](C)C(=O)N[C@@H](Cc1c[nH]c2ccccc12)C(=O)N[C@@H](CC(C)C)C(=O)N[C@H](C(=O)N[C@@H](CCC(N)=O)C(=O)N[C@@H](Cc1c[nH]cn1)C(=O)N[C@@H](CCCCN)C(=O)N[C@H](C(=O)N[C@H](C(=O)N[C@@H](CC(=O)O)C(N)=O)[C@@H](C)O)[C@@H](C)CC)[C@@H](C)CC

These binders were tested against glucagon-like peptide-1 (GLP-1) receptor.

Binder	GLP-1 activity [EC50 (pmol)]
H[Aib]EGSFTSELATILDK([PEG5CH2CO-γGlu-C18 diacid])QAARDFIAWLIQHKITD-NH2 [Compound 6]	79.5 pmol
B1	60.1 pmol
H[Aib]EGSFTSELATILDK([PEG3CH2CO-γGlu-C18 diacid])QAARDFIAWLIQHKITD-NH2 [Compound 4]	60 pmol
H[Aib]EGSFTSELATILDK([PEG1CH2CO-γGlu-C18 diacid])QAARDFIAWLIQHKITD-NH2 [Compound 2]	68.7 pmol
H[Aib]EGSFTSELATILDK([PEG4CH2CO-γGlu-C18 diacid])QAARDFIAWLIQHKITD-NH2 [Compound 5]	72.8 pmol
B2	94.7 pmol

Each binder was assayed against glucagon-like peptide-2 (GLP-2) receptor.

Binder	GLP-2 activity [EC50 (nmol)]
H[Aib]EGSFTSELATILDK([PEG5CH2CO-γGlu-C18 diacid])QAARDFIAWLIQHKITD-NH2 [Compound 6]	4.62 nmol
B1	4.7 nmol
H[Aib]EGSFTSELATILDK([PEG3CH2CO-γGlu-C18 diacid])QAARDFIAWLIQHKITD-NH2 [Compound 4]	4.33 nmol
H[Aib]EGSFTSELATILDK([PEG1CH2CO-γGlu-C18 diacid])QAARDFIAWLIQHKITD-NH2 [Compound 2]	5.51 nmol
H[Aib]EGSFTSELATILDK([PEG4CH2CO-γGlu-C18 diacid])QAARDFIAWLIQHKITD-NH2 [Compound 5]	5.54 nmol
B2	6.04 nmol
